Data reported in PMC10880428 (Protein Science : A Publication of the Protein Society, 2024).

Experiments:
[1] = biological target: T1, EtgA residues 18–152 with C-terminal 6xHis-tag (enteropathogenic Escherichia coli); experiment: differential scanning fluorimetry
T1 chain: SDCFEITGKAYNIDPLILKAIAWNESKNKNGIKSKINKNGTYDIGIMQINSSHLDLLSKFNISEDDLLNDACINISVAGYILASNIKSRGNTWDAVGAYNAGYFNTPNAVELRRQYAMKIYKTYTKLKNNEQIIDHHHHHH

[2] = biological target: T1, EtgA residues 18–152 with C-terminal …; experiment: MST

B1: EscI peptide comprising EscI residues 66–87 (peptide)
peptide: TAGVSSPEQVLIEEIKKRHLAT
increase in Tm of EtgA (250 and 500 μM peptide) [1]: 2 °C
Kd [2]: 385 ± 35 µM
